Experimental data published in US20230212319A1, “NOVEL ANTIGEN BINDING DOMAINS AND SYNTHETIC ANTIGEN RECEPTORS INCORPORATING THE SAME” (University of Southern California, priority 2020, published 2023).

Tested on: SKOV3-Luc cells
Assay: SKOV3 xenograft in NSG mice
Settings: for tumor inhibition / protection, SKOV3 xenograft: 1 × 10^6 SKOV3-Luc s.c., a week later 3 × 10^6 SAR-T i.v.; for survival, SKOV3 xenograft: mouse, in vivo

Row | Molecule | tumor inhibition / protection, SKOV3 xenograft | survival, SKOV3 xenograft
1 | 10311 (protein, Synthetic Polynucloetide) MALPVTALLLPLALLLHAARPEVQLVESGGGLVQPGGSLRLSCAASGYTFTSYWLHWVRQAPGKGLEWVGYIRPSTGYTEYNQKFKDRFTISADTSKNTAYLQMNSLRAEDTAVYYCARSRWLLDYWGQGTLVTVSSGGGGSGGGGSGGGGSDIQMTQSPSSLSASVGDRVTITCKSSQSLLYSSNQKNYLAWFQQKPGKAPKLLIYWASTRESGVPSRFSGSGSGTDFTLTISSLQPEDFATYFCHQYLSSYTFGQGTKVEIKRTREQKLISEEDLAKPTTTPAPRPPTPAPTIASQPLSLRPEACRPAAGGAVHTRGLDFACDIYIWAPLAGTCGVLLLSLVITLYCKRGRKKLLYIFKQPFMRPVQTTQEEDGCSCRFPEEEEGGCELRVKFSRSADAPAYQQGQNQLYNELNLGRREEYDVLDKRRGRDPEMGGKPRRKNPQEGLYNELQKDKMAEAYSEIGMKGERRRGKGHDGLYQGLSTATKDTYDALHMQALPPR | weak protection | –
2 | 10453 (protein, Synthetic Polynucloetide) MALPVTALLLPLALLLHAARPEVQLVESGGGLVQPGGSLRLSCAASGYTFTTYWMHWVRQAPGKGLEWVGYIRPSTGYTEYNQKFKDRFTISADTSKNTAYLQMNSLRAEDTAVYYCARSRWLLDYWGQGTLVTVSLEDLKNVFPPEVAVFEPSEAEISHTQKATLVCLATGFYPDHVELSWWVNGKEVHSGVCTDPQPLKEQPALNDSRYCLSSRLRVSATFWQNPRNHFRCQVQFYGLSENDEWTQDRAKPVTQIVSAEAWGRADCGFTSESYQQGVLSATILYEILLGKATLYAVLVSALVLMAMVKRKDSRGRAKRSGSGATNFSLLKQAGDVEENPGPTSMDWIWRILFLVGAATGAHSFEDIQMTQSPSSLSASVGDRVTITCKSSQSLLYSSNQKNYLAWFQQKPGKAPKLLIYWASTRESGVPSRFSGSGSGTDFTLTISSLQPEDFATYFCHQYLSSYTFGQGTKVEIKRTRIQNPDPAVYQLRDSKSSDKSVCLFTDFDSQTNVSQSKDSDVYITDKCVLDMRSMDFKSNSAVAWSNKSDFACANAFNNSIIPEDTFFPSPESSCDVKLVEKSFETDTNLNFQNLSVIGFRILLLKVAGFNLLMTLRLWSS | tumor inhibition | improvement in survival
3 | 10384 (protein, Synthetic Polynucloetide) MALPVTALLLPLALLLHAARPDIQMTQSPSSLSASVGDRVTITCKSSQSVLYSSNQKNYLAWFQQKPGKAPKLLIYWASTRESGVPSRFSGSGSGTDFTLTISSLQPEDFATYFCHQYLSSYTFGQGTKVEIKRLEDLKNVFPPEVAVFEPSEAEISHTQKATLVCLATGFYPDHVELSWWVNGKEVHSGVCTDPQPLKEQPALNDSRYCLSSRLRVSATFWQNPRNHFRCQVQFYGLSENDEWTQDRAKPVTQIVSAEAWGRADCGFTSESYQQGVLSATILYEILLGKATLYAVLVSALVLMAMVKRKDSRGRAKRSGSGATNFSLLKQAGDVEENPGPTSMDWIWRILFLVGAATGAHSFEEVQLVESGGGLVQPGGSLRLSCAASGFTFTTYWMHWVRQAPGKGLEWVGYIRPSTGYTEYNQKFKDRFTISADTSKNTAYLQMNSLRAEDTAVYYCARSRWLLDYWGQGTLVTVSTRIQNPDPAVYQLRDSKSSDKSVCLFTDFDSQTNVSQSKDSDVYITDKCVLDMRSMDFKSNSAVAWSNKSDFACANAFNNSIIPEDTFFPSPESSCDVKLVEKSFETDTNLNFQNLSVIGFRILLLKVAGFNLLMTLRLWSS | tumor inhibition | improvement in survival
4 | 10522 (protein, Synthetic Polynucloetide) MALPVTALLLPLALLLHAARPDIQMTQSPSSLSASVGDRVTITCRASQDISNYLNWYQQKPGKAPKLLIYYTSRLHSGVPSRFSGSGSGTDFTLTISSLQPEDFATYYCQQGNTLPYTFGQGTKVEIKRLEDLKNVFPPEVAVFEPSEAEISHTQKATLVCLATGFYPDHVELSWWVNGKEVHSGVCTDPQPLKEQPALNDSRYCLSSRLRVSATFWQNPRNHFRCQVQFYGLSENDEWTQDRAKPVTQIVSAEAWGRADCGFTSESYQQGVLSATILYEILLGKATLYAVLVSALVLMAMVKRKDSRGRAKRSGSGATNFSLLKQAGDVEENPGPTSMDWIWRILFLVGAATGAHSFEEVQLVESGGGLVQPGGSLRLSCAASGYTFSDYFMSWVRQAPGKGLEWVATISNGGTYTYYPDSVKGRFTISRDNSKNTLYLQMNSLRAEDTAVYYCARFDGYIFDYWGQGTLVTVSSTRIQNPDPAVYQLRDSKSSDKSVCLFTDFDSQTNVSQSKDSDVYITDKCVLDMRSMDFKSNSAVAWSNKSDFACANAFNNSIIPEDTFFPSPESSCDVKLVEKSFETDTNLNFQNLSVIGFRILLLKVAGFNLLMTLRLWSS | tumor inhibition | improvement in survival
5 | 10591 (protein, Synthetic Polynucloetide) MALPVTALLLPLALLLHAARPDIQMTQSPSSLSASVGDRVTITCRASQDISSYLNWYQQKPGKAPKLLIYYTSRLHSGVPSRFSGSGSGTDFTLTISSLQPEDFATYYCQQGNTLPYTFGQGTKVEIKRLEDLKNVFPPEVAVFEPSEAEISHTQKATLVCLATGFYPDHVELSWWVNGKEVHSGVCTDPQPLKEQPALNDSRYCLSSRLRVSATFWQNPRNHFRCQVQFYGLSENDEWTQDRAKPVTQIVSAEAWGRADCGFTSESYQQGVLSATILYEILLGKATLYAVLVSALVLMAMVKRKDSRGRAKRSGSGATNFSLLKQAGDVEENPGPTSMDWIWRILFLVGAATGAHSFEEVQLVESGGGLVQPGGSLRLSCAASGFTFSDYFMSWVRQAPGKGLEWVATISNGGTYTYYPDSVKGRFTISRDNSKNTLYLQMNSLRAEDTAVYYCARFDGYIFDYWGQGTLVTVSSTRIQNPDPAVYQLRDSKSSDKSVCLFTDFDSQTNVSQSKDSDVYITDKCVLDMRSMDFKSNSAVAWSNKSDFACANAFNNSIIPEDTFFPSPESSCDVKLVEKSFETDTNLNFQNLSVIGFRILLLKVAGFNLLMTLRLWSS | tumor inhibition | improvement in survival
6 | 10660 (protein, Synthetic Polynucloetide) MALPVTALLLPLALLLHAARPDIQMTQSPSSLSASVGDRVTITCRASQDISNYLNWYQQKPGKAPKLLIYYTSRLHSGVPSRFSGSGSGTDFTLTISSLQPEDFATYYCQQGNTLPWTFGQGTKVEIKRLEDLKNVFPPEVAVFEPSEAEISHTQKATLVCLATGFYPDHVELSWWVNGKEVHSGVCTDPQPLKEQPALNDSRYCLSSRLRVSATFWQNPRNHFRCQVQFYGLSENDEWTQDRAKPVTQIVSAEAWGRADCGFTSESYQQGVLSATILYEILLGKATLYAVLVSALVLMAMVKRKDSRGRAKRSGSGATNFSLLKQAGDVEENPGPTSMDWIWRILFLVGAATGAHSFEEVQLVESGGGLVQPGGSLRLSCAASGFTFSDYFMSWVRQAPGKGLEWVATISNGGTYTYYPDSVKGRFTISRDNSKNTLYLQMNSLRAEDTAVYYCARFDGYIFDYWGQGTLVTVSSTRIQNPDPAVYQLRDSKSSDKSVCLFTDFDSQTNVSQSKDSDVYITDKCVLDMRSMDFKSNSAVAWSNKSDFACANAFNNSIIPEDTFFPSPESSCDVKLVEKSFETDTNLNFQNLSVIGFRILLLKVAGFNLLMTLRLWSS | tumor inhibition | improvement in survival
